B1: 5C7 (VHH)
VHH: EVQLVESGGGLVQAGDSLRLSCAASGGTFGSSHMAWFRQVPEKEREFVAAISRSGGTTYYADSVKGRCTISRDNAKNTVYLQMNSLKPEDTAVYYCAAARFWGSTSTRMDDYQYWGQGTQVTVSS
notes: anti-HGF Nanobody clone; not shown: c-myc and His6 tags
B2: 9H5 (VHH)
VHH: EVQLVESGGGLVQPGGSLRLSCAASGSIFNLNPMGWYRQAPGKQRELVATVTGEGRTNYSDSVKGRFTISRDNAKNTVYLQMNSLKPEDTAVYYCNAAFWAYDDAYWGQGTQVTVSS
notes: as for B1

How the values were obtained:
[1] = biological target: T1, human HGF (R&D Systems, 294-HG/CF) (human, UniProt P14210 32-728); experiment: SPR (Biacore T100), HGF amine-coupled to CM5 chip, periplasmic extract at one dilution
T1 construct: The entry begins at QRKRR, without signal peptide; Amine-coupled to the chip in SPR and biotinylated in AlphaScreen; also called rec hHGF (R&D systems)
T1 sequence (P14210 32-728 limits assumed): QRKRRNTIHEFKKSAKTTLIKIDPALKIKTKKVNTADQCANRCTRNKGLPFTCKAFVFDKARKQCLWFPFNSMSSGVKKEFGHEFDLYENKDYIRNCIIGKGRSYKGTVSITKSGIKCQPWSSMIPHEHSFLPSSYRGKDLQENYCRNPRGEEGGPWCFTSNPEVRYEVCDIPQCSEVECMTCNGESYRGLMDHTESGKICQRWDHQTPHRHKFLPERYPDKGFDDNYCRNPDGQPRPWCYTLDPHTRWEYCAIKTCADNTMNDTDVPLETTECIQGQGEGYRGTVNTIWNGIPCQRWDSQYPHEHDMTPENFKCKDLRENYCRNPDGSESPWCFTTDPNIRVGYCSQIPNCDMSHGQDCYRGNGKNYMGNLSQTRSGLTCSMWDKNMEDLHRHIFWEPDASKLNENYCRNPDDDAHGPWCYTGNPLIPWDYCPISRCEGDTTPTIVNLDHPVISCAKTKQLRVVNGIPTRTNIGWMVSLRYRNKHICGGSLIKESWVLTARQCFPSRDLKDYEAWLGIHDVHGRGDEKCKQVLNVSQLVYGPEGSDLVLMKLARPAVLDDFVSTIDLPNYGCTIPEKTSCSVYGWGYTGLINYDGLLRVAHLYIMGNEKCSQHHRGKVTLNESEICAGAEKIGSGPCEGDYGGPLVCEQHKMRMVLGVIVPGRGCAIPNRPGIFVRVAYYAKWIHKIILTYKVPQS
Procedure: Off-rate constants (Koff) of individual Nanobodies were determined by surface plasmon resonance on a Biacore T100 instrument.
Human HGF (R&D) was amine-coupled to a CM5 sensor chip at a density of 2500 relative units. Remaining reactive groups were inactivated using ethanolamine. Nanobody binding was assessed at a single dilution of periplasmic extract, whereas c-Met was tested with a single concentration of 10 nM. Each sample was injected for 2 min at a flow rate of 45 μl/min to allow for binding to chip-bound antigen. Next, binding buffer without Nanobody was sent over the chip at the same flow rate to allow dissociation of bound Nanobody. After 10 min, remaining bound analyte was removed by injecting regeneration solution (1M NaCl, 50 mM NaOH).

[2] = biological target: T1, human HGF (R&D Systems, 294-HG/CF); experiment: AlphaScreen competition, serial dilution of purified Nanobody; inhibition of biotinylated human HGF binding to c-Met-Fc
Procedure: (§1) In brief, 5 μl of 1/5 prediluted periplasmic extract of individual Nanobody clones were incubated with 3 nM biotinylated HGF, 2 nM c-Met-Fc, streptavidin coated donor beads and anti-human IgG1 Fc Nanobody covalently coupled AlphaScreen acceptor beads. Monoclonal antibody clone 24612 (R&D systems) known to inhibit the HGF/c-Met-Fc interaction, was used as a positive control. Assays were read in an Envision AlphaScreen™ option fitted multimode reader (Perkin Elmer). Individual clones were scored as putative HGF/c-Met-Fc interaction inhibiting if the presence of the periplasmic extract decreased the fluorescent signal of the acceptor beads. Both inhibitory and non-inhibitory clones were identified. A 10-fold reduction in signal with respect to the negative control (irrelevant periplasmic extract and buffer) was used to select the HGF/c-Met inhibiting Nanobodies. As a positive control, anti-HGF monoclonal antibody (R&D systems, clone 24612) was included. FIG. 2 depicts an example of screen of periplasmic extracts using AlphaScreen.
(§2) Serial dilutions of purified Nanobodies were then analyzed for their ability to block the interaction of human HGF with c-Met-Fc using the same AlphaScreen™ assay as described above (1.4). […]

[3] = biological target: T2, human HGF (R&D material and Peprotech material, values averaged over both) (human, UniProt P14210 32-728); experiment: SPR (Biacore T100), purified Nanobody, biphasic dissociation, kd1 fitted 125-185 s after injection start
T2 construct: As printed they differ in one letter
T2 sequence (P14210 32-728 limits assumed): as above

[4] = biological target: T2, human HGF (R&D material and Peprotech …); experiment: SPR (Biacore T100), purified Nanobody, biphasic dissociation, kd2 fitted 300-720 s after injection start
[5] = biological target: T1, human HGF (R&D Systems, 294-HG/CF); experiment: AlphaScreen competition, biotinylated HGF and c-Met-Fc, dilution series of purified Nanobody
Procedure: as §1, §2

[6] = biological target: T2, human HGF (R&D material and Peprotech …); experiment: SPR (Biacore T100), summary table
[7] = biological target: T2, human HGF (R&D material and Peprotech …); experiment: SPR (Biacore T100), purified Nanobody, biphasic dissociation, kd1 fitted 125-185 s after injection start; kd1: early phase of the bi-phasic dissociation, fitted 125 to 185 seconds after injection start

Row | koff [1] [s⁻¹] | IC50 (read off the curve) [2] [nM] | koff [3] [s⁻¹] | koff [4] [s⁻¹] | IC50 [5] [nM] | koff [6] [s⁻¹] | koff [7] [s⁻¹] | Binder
1 | 0.0019 | ~10 | 0.00605 | 0.000821 |  |  |  | B1
2 | 0.00155 |  |  | 0.000952 | 2.1 | 0.001 | 0.00241 | B2
